Laboratory results reported in paper PMC4281351, “Heterogeneity of quaternary structure of glucosamine-6-phosphate deaminase from Giardia lamblia” (Parasitology Research, 2014).
Values joined by “and” are separate entries in the source; they are usually repeats but may differ in a detail not shown here. Equal entries are not always repeated.

B1: wild-type glucosamine-6-phosphate deaminase of Giardia lamblia (GlmNagB) (enzyme, UniProt O97439 1-266, looked up)
chain: MPSIHVSKCADPAIKLAHRIAEVVRSKPNCVLGLATGSTPIPVYQELARLHREEGLDFSQVRTFNLDEYAGLPPTHDQTYRFFMEEHLFSKVNIKPENVHFLNGMASDYEKECERYEQELKAIGPCDVWLLGIGHNGHIAFNEPGSPRDSRTRVVCLTQSTIDANARFFGNDKSKVPTKALSVGIATIMESREILLLATGESKREAVTKSVKGKCETHCPASFLHEHPHCRFYVDMDAGKVVDNTCCQATNQASCCGSTSCHAAKA
notes: glucosamine-6-phosphate deaminase of Giardia lamblia, GPI1 (GN6PI) gene cloned from strain MR4; primers run from the start ATG to the stop codon; calculated mass 29.4 kDa; No tag (pETTopo-GlmNagB); In solution a mixture of monomer, homodimer and homotetramer; also called wild-type GlmNagB; native GlmNagB; source: E. coli BL21(DE3) pLysS, purified (streptomycin sulfate, ammonium sulfate, PEG, ion …)
B2: G. lamblia GlcN6P deaminase with N-terminal His6 fusion (GlmNagB-HisN) (enzyme, Giardia lamblia, UniProt O97439 1-266, looked up)
chain: B1 chain
notes: glucosamine-6-phosphate deaminase of Giardia lamblia, GPI1 (GN6PI) gene cloned from strain MR4; NdeI/BamHI insert from the start ATG to the stop codon in pET15b; calculated mass 31.7 kDa with the tag; source: E. coli BL21(DE3) pLysS, purified (Ni2+-IDA agarose); not shown: His6, N-terminal, kept
B3: G. lamblia GlcN6P deaminase with C-terminal His6 fusion (GlmNagB-HisC) (enzyme, Giardia lamblia, UniProt O97439 1-266, looked up)
chain: B1 chain
notes: glucosamine-6-phosphate deaminase of Giardia lamblia, GPI1 (GN6PI) gene cloned from strain MR4; forward primer from the start ATG, reverse primer adds six His codons after the last codon and then the stop; calculated mass 30.2 kDa with the tag; pETTopo-GlmNagB-HisC; hexaHis stands directly at the C-terminus; source: E. coli BL21(DE3) pLysS, purified (Ni2+-IDA agarose); not shown: His6, …

Biological target: the molecule itself
Experiment: SEC; Superdex 200HR 10/300 GL; 0.5 ml applied, 0.5 ml/min; 50 mM potassium phosphate pH 7.0, 0.15 M NaCl; masses from a plot of log molecular mass versus Kav; fresh preparations and preparations stored for several hours at 4 °C or of higher protein concentration

Stoichiometry N, 4 and 2:
B1, B2, B3
